Experimental data from PMC11234457, “Antitumor Effect of Anti‐c‐Myc Aptamer‐Based PROTAC for Degradation of the c‐Myc Protein”.
Substitutions are numbered along the chain they refer to.

Tests used:
c-Myc [1] = molecular target: T1, c-Myc (Homo sapiens, UniProt P01106 16-454); assay: ELISA; 200 nM aptamer, 100 ng c-Myc/well; ELISA: c-Myc coated on microplate (100 mM NaHCO3 pH 9.6, 4 C overnight), 2% BSA in PBST block, binding buffer (composition not in material), RT 30 min; conditions: protein: commercial; tags: none (untagged); label: 5' biotin (ELISA, pull-down); FAM (flow)
c-Myc [2] = molecular target: T1, c-Myc; assay: ELISA; ELISA: c-Myc coated on microplate (100 mM NaHCO3 pH 9.6, 4 C overnight), 2% BSA in PBST block, binding buffer (composition not in material), RT 30 min; conditions: protein: commercial; tags: none (untagged)
c-Myc [3] = molecular target: T1, c-Myc; assay: competition ELISA; 200 nM ProMyc, 50 ng c-Myc; ELISA: c-Myc coated on microplate (100 mM NaHCO3 pH 9.6, 4 C overnight), 2% BSA in PBST block, binding buffer (composition not in material), RT 30 min; conditions: protein: commercial; tags: none (untagged); cloverleaf (predicted)
c-Myc [4] = molecular target: T1, c-Myc; assay: competition ELISA; affinity consistent with ProMyc; ELISA: c-Myc coated on microplate (100 mM NaHCO3 pH 9.6, 4 C overnight), 2% BSA in PBST block, binding buffer (composition not in material), RT 30 min; conditions: protein: commercial; tags: none (untagged); cloverleaf (predicted)
c-Myc [5] = molecular target: T1, c-Myc; assay: ELISA; comparable to MA9; ELISA: c-Myc coated on microplate (100 mM NaHCO3 pH 9.6, 4 C overnight), 2% BSA in PBST block, binding buffer (composition not in material), RT 30 min; conditions: protein: commercial; tags: none (untagged); label: 5' biotin; FAM; cy3; cloverleaf (predicted)

T1 sequence (P01106 16-454): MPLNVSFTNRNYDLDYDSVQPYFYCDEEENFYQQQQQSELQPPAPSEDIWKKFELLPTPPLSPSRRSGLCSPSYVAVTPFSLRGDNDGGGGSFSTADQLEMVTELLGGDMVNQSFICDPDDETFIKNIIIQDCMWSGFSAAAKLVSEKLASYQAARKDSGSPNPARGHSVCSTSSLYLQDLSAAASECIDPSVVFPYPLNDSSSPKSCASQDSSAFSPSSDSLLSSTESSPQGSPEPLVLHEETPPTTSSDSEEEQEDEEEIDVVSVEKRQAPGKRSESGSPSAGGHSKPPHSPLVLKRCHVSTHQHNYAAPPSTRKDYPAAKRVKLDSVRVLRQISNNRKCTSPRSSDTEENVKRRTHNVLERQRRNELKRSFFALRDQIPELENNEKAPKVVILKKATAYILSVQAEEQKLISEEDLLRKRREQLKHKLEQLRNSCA

B1: MA9 (ssDNA)
DNA: CGTTACTTCTGTTCGTTCTCATGGCGAACCCTGTATGGCGCGTAAGTCGGGGAGTAACGTCTGCCTAGTTCCTTGTCTGATCTCCA
Does B1 bind (c-Myc [1])?
Result: binds

B2: MA9C1-mut (structured_DNA)
DNA: CGTTAATTCTGTTCGTTCTCATGGCGAACCCTGTATGACACGTTTGACGGGGAGTAACG
Does B2 bind (c-Myc [2])?
Result: no binding

B3: ProMyc (structured_DNA)
DNA: B2 DNA with A6C, A38G, A40G, T44A, T45A, A47T
modifications: 5' NH2-C6 linked to pomalidomide-PEG4
Does B3 bind (c-Myc [3])?
Result: binds

B4: ProMyc-VHL (structured_DNA)
DNA: B2 DNA with A6C, A38G, A40G, T44A, T45A, A47T
modifications: 5' NH2-C6 linked to (S,R,S)-AHPC-PEG5
Does B4 bind (c-Myc [4])?
Result: binds

B5: MA9C1 (structured_DNA)
DNA: B2 DNA with A6C, A38G, A40G, T44A, T45A, A47T
Does B5 bind (c-Myc [5])?
Result: binds
